Source: the nanobody polyreactivity screen of Harvey et al. (2022)

Experiment: yeast display, Sf9 membrane polyspecificity reagent, FACS + sequencing; frameworks hold sequencing errors
Method in brief: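 Nanobodies from a synthetic yeast display library (Saccharomyces cerevisiae BJ5465), induced 36–48 hours with galactose, were stained 1 hour at 4 °C with 10% biotinylated, detergent-solubilized Sf9 membrane reagent, enriched on streptavidin microbeads, then FACS-sorted. Anti-HA (expression) and streptavidin (reagent binding) fluorescence set low and high (top ~1%) gates. Polyreactivity labels come from the gate of origin. Genes were colony-PCR amplified, MiSeq 2 × 250 sequenced and filtered by CDR length.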

Row | Sequence | polyreactivity (PSR sort gate)
1 | QVQLVESGVGLVQAGVRLRLSCAASGITLRRYAMGWYRQAPGKEREFVAAISRTGGNTYYADSVKGRFTISRDNAKNTVYLQMNSLKPEDTAVYYCAREVYRHYAPVGYDYWGQGTQVTVSS | high polyreactivity
2 | QVQLVESGVGLVQAGVSLRLSCAASGIILTEYAMGCYRQAHGKERELVAAINRVGSTNYADSVKGRFTISRDNAKNTVYLQMNSLNPEDTAVYYCAAGTYYNDYDYWGQGTQVTVSS | low polyreactivity
3 | QVQLVESGVGLVQAGVSLRLSSAASGSIFRLYTMGWYRQATGKERELVAAITWSGGRTYYADSVKGRFTISRDNAKNTVYLQMNSLKPEDTAVYYCAADNWYSTYDYWGRGTQVTVSS | high polyreactivity
4 | QVQLVESGVGLVQARGSLRLSCAASGIIFKKTVMGWYRPSPGKERECVAPITSRDGSTYYADSVKGRFTISRDNANNTVYLQMNSLKPEDTAVYYCAAEVYDGYEYEVWYDYCGQGTQVTVSS | high polyreactivity
5 | QVQLVESGVGLVQARGSLRLSSAASGRIFDRNAMGWYRQSPGNERELVAAIDDSGGDTSYADSVKGRFTISRDNAKNTVYLQMTSLKPEDTAVYYCNAVKQRSSIFDYWGQGTQLTVSS | low polyreactivity
6 | QVQLVESGVGLVQARRSLRLSCAASGSSKLILWDGIDRRLGKKGSWLPLFVLVVLRNYADSVKGRFTISRDNAKNTVYLQMNILKPDDTEVYYCAATAIGSGGWGDYWGLGTQVTVSS | low polyreactivity
7 | QVQLVESGVGLVQPGGILRLSCAASGIIFTQYAMGWNIQAPGKESELVAAMSGSGGSTYYADSVKGRFTISRDNAKNTVYLQMNSLKPEDTAVFYCAAGGVRGPGVESRMFYLGQGTQVTVSS | high polyreactivity
8 | QVQLVESGVGVVQAGGSLRLSCAASGRIFYGYAMGWYRQAPGKERELVAAISRGGTRTFYADSVKGRFTISRDNAKNTVYVQMNSLKPEDTAVYYCAARKRDFYSGYEYYYWGQGTQVTVSS | high polyreactivity
9 | QVQLVESGVRLGQAGGSLRLSCAASGSIFLRYAMGWFRPAPGKERELVATISQRGSTYYADSVKGRFTISRDNAKNTVYLKKNSLKPEDTAVYYCNAVGRARTLGSNTYGYWGQGTQVTVSS | high polyreactivity
10 | QVQLVESGVRLVQAGGRLRLSCAASGRIFDHNAMGWYRQAPGKERELVAAIDSGTSTNYADSVKGRFTISRDNAKNTVYLQMNSLKPEDTAVYYCARLLGPVRHKYDYDYWGQGTQVTVSS | low polyreactivity
11 | QVQLVESGVRLVQAGGSLRLSCAASGRTLKYNAMGWYIQAPGKERELVAAISYSGSSTYYADSVRGRFTISRDNAKNTVYLQMNSLKPEDTAVYYFNTARPTAAYDYWGQGTQVTVSS | low polyreactivity
12 | QVQLVESGVRLVQAVGSHRLSCAASASIIDGNSMGWYRQAPGKERELGAVISSRGTRTYYADSVKGRFTISRDNAKKTVYLQMNILKPEDTAVYYCNTRTSDLNGSGDYWGLGTQVTVSS | high polyreactivity
13 | QVQLVESGVVLVQAGGSLRLSCAASGTIFDLNAMGWYRQAPGKEREFVAAISSGGGTYYADSVKGRFTISRDNANNTVYLQMNSQKPEDTAVYYCKARARRYGGRYYYWGQGTQVTVSS | high polyreactivity
14 | QVQLVESPGGLDQAGGSLRLSGAASGSTLYDNAMGWYRQAPGKERELVAAISRSGGRTYYADSVKGRFTISRDNAKNTVYLHMNSLIPEDTAVYYCNAVVNGPGNYVTYDSWGQGTQVTVSS | high polyreactivity
15 | QVQLVESRGGIVQAGGSLRLSCAASGRIFNNYAMGCYRQAPGKERELDAAISGGGSTNYADSVKGRFTISRDNETNTVYLQMNSLKPEDTAVYYSATGYLKASRDLYETVPYDYWGQGTQVTVSS | low polyreactivity
16 | QVQLVESRGGIVQAGGSLRLSSAASGSTFAYNDLGWYRQAPGKERQLVADMRSGGNTNYADSVKGRFTISRDNAKNTVYLQMNSLKPEDTAVYYCATDGYRIDVYHPDYRYDYWGLGTQVTVSS | low polyreactivity
17 | QVQLVESRGGLLQAGGSLRLSCAASGSIFKYYSMGSYRQAPGKERELVAAIRWSGGTTYYADSVKGRFTISRDNAKNTVYLQMNSLKPEDTAVYYCAAEYFNQNTREGYDYWGQGSQVTVSS | low polyreactivity
18 | QVQLVESRGGLVQAGGSLLLSFAASGRTYPYNAMGWYIQAPRKERELVAGISSGGTTTYADSVKGRFTISRDNAKNTVYLQMNSLKPEDTAVYYCAATVIIFDHSLPGWDDYDYWGQGTQVTVSS | low polyreactivity
19 | QVQLVESRGGLVQAGGSLPLSCAASGFIFTSYAMGWYRQAHGKEREFVAAISGSGGSTYYADSVKGRFTISRDNAKNTVYLQMNSLKPEDTAVYYCAAESWVGYYLYWYDYWGQGTQVTVSS | high polyreactivity
20 | QVQLVESRGGLVQAGGSLRLRCAASGFIFGYNVMGWYRQAPGKERELVASISTGGRTYYADSVKGRFTISRDNAKNTVYLQMNSLKPEDTAVYYCAARYRSYSYLYYSWGQGTQVTVSS | high polyreactivity
21 | QVQLVESRGGLVQAGGSLRLSCAASGFIFFQYAMGWYRQAPGTERELVAAISGSGVTTYYADSVKGRFTISRDNAKNTVYLQMNSLKPEDTAVYYCNAALRWKYDWGQGTQVTVSS | low polyreactivity
22 | QVQLVESRGGLVQAGGSLRLSCAASGFIFGYYALGWYRQAPGKEWELVAAITNGGRTYYADSVKGRFTISRDNAKNTVYLQMISLKPEDTAVYYCAARPSWWSALFDSWGQGTQVTVSS | low polyreactivity

Row | Sequence | polyreactivity (PSR sort gate)
23 | QVQLVESRGGLVQAGGSLRLSCAASGFIFSRYGMGWYRQAPGKERELVAAISRSGGSTYYADSVKGRFTISRDNAKNTVYVQMNSLKPEDTAVYYCATAYSWRNADWFAYSYDYWGQGTQVTVSS | low polyreactivity
24 | QVQLVESRGGLVQAGGSLRLSCAASGFTFDNYGMGWYSQAPGKERELVAAISKSGTSTYYADSGKGRFTITRDNAKNTVYLQMNSLNPEDTAVYYCSGALPGYGDYYYWGQGTQVTVSS | high polyreactivity
25 | QVQLVESRGGLVQAGGSLRLSCAASGFTFFVYPMGWYRQAAGKERELVAVITSGGTTNYADSVKGRFTISRDNAKNTVYLQMNSLIPEDTAVYYCATDNGGIPKYVPYDYWGQGTQGTVSS | high polyreactivity
26 | QVQLVESRGGLVQAGGSLRLSCAASGFTFVGYAMGWYRQAPGKERALVAAISRRGTPTYYADSVKGRFTISRDNAKNTVYLQMNSLKPEDTAVYFCAASNGYQAVTYDYWGQGTQVTVSS | high polyreactivity
27 | QVQLVESRGGLVQAGGSLRLSCAASGITFTIYAMGWYRQAPGKERELVAAITWTSDITHYADSVKGRFTISRDNAKNTVYLQMISLKPEDTAVYYCAATTWDEYDYWGQGTQVTVSS | high polyreactivity
28 | QVQLVESRGGLVQAGGSLRLSCAASGITSRLNAMVWYRQAPGKERELVAGISRGGGTTYYADSVKGRFTISRDNAKNTVYLQMNSLKTEDTAVYYCAAAYRVRGGTYDSWGQGTQVTVSS | high polyreactivity
29 | QVQLVESRGGLVQAGGSLRLSCAASGLTFVYYAMGWYRQAPGKERELVASIDYSGSSTYYADSVKGRFTISRDNAKNTVYLQMNSLKPEDTAVYYCAATDSGEYWGQGTQVTVSS | low polyreactivity
30 | QVQLVESRGGLVQAGGSLRLSCAASGRIFNAYAMGWYRQAPGKERELVAAITVSGTRTYYADSVKGRFTISRDNAKNTVYLQMNSLKPEDTAVYYCAAEVVNYWYSYDYWGQGTQVTVSS | high polyreactivity
31 | QVQLVESRGGLVQAGGSLRLSCAASGRILYVNDMGWYRQAPRKERELVAAISWRGGRTYYADSVKGRFTISRDNAKNTVYLQMNSLKPEDTAVYYCAARARGGYQRDYYWGQGTQVTVSS | high polyreactivity
32 | QVQLVESRGGLVQAGGSLRLSCAASGRNFPINTMGWYRQAPGKERELVAAIRTSGSSTYADSVKGRFTISRDNAKNSVYLQMNSLKPEDTAVYYCNTKYPGRGYYWGQGTQVTVSS | high polyreactivity
33 | QVQLVESRGGLVQAGGSLRLSCAASGRTFYSYAMGWSRQAPGKERELVAAITSSGGSTYYADSVKGRFTISRDNAKNTVYLQMNSLKPEDTAVYYCAAGKPYSSYWSWGYWTNLEDDYWGQGTQVTVSS | high polyreactivity
34 | QVQLVESRGGLVQAGGSLRLSCAASGRTIINYAMGCYRQAPRKERELVAAITTGGRTNYADSVKGRFTISRDNAQNTVYLQMNSMKPEDTAVYYCNAVRYYRYYYWGQGTQVTVSS | low polyreactivity
35 | QVQLVESRGGLVQAGGSLRLSCAASGSIFDSYAMGWYRQAPGKERELVADISSGGSTYYADSVKGRFTISRDNAKNTVYLQMNSLKPEDTAVYYCAAQYVYYFYGDEAFTDDYWGQGTQVTVSS | low polyreactivity
36 | QVQLVESRGGLVQAGGSLRLSCAASGSIFGRNAMGWYRQAPGKERELVAAIRSGDSTNYADSVKGRFTISRDNAKNTVYLQMNSLKPEDTAVYYCAADYIFWHRRDKKSVVMDYWGQGTQVTVSS | low polyreactivity
37 | QVQLVESRGGLVQAGGSLRLSCAASGSIFLVYAMGWYRQAPGKERELVAAIDSSGGSTYYADSVKGRFTISRDNAKNTVYLQMNSLKREDTAVYYCAVYIRYPWSGRYDYWGQGTQVTVSS | high polyreactivity
38 | QVQLVESRGGLVQAGGSLRLSCAASGSIFNANAMGWYRQAPGKEREIVAAITRAGGGTYYADSVKGRFTISRVNAKNTVYLQMNRLKPEDTAVYYCAREVFFYASTGQTYGYWGQGTQVTVSS | high polyreactivity
39 | QVQLVESRGGLVQAGGSLRLSCAASGSIFTSYAMGWYRQAPGKERELVAAINGSGGSTFYADSVKGRFTISRDNAKNTVYLQMNSLKPQDTAVYYCNTGGPRGTTYDYWGQGTQVTVSS | low polyreactivity
40 | QVQLVESRGGLVQAGGSLRLSCAASGSILVRYAMGWDRQAPGKERELVAAITGTSGGTYYADSVKGRFTISRDNAKNTVYLQMNSLKPEDTAVYYCNADGGSGAYLDLTITDYDYWGQGTQVTVSS | low polyreactivity
41 | QVQLVESRGGLVQAGGSLRLSCAASGSNFYRNALGWYRQAPGKERELVAAISSDGSTNYADSVKGRFTISRDNAKNTVYLQLNSLKPEDTAVYSCAPHDRWHHRSLPYEYWGQGTQVTVSS | low polyreactivity
42 | QVQLVESRGGLVQAGGSLRLSCAASGYIFSYNAMGCYRQAPGKERELVAATSSRGGSTYYADSVKGRFTISRDNAKNPDYLQMNSLKPEDTAVYFCAVSSRRVDTEPYDYWGQGTQVTVSS | high polyreactivity
43 | QVQLVESRGGLVQAGGSLRLSCAASRRIFVRNAIGWYIQEPGKERELVAAISSSGGPTYYADSVKGRFTISRDNAKNTVYLQMNSLKPEDTAVYYCAASSSNKEYDYWGQGTQVTVSS | high polyreactivity
